According to US7422862B2, “Methods for identifying modulators of apoptosis” (The Burnham Institute, priority 2001, dated 2008):
No end group written: not given here.

How the values were obtained:
Bax [1] = biological target: T1, Bax (Homo sapiens, UniProt Q07812); assay: Co-immunoprecipitation of GFP-Humanin fusion polypeptides with Bax in transfected cells; format: binding; design: expressed in transfected cells; host or cells: HEK293T; key to Bax binding: +: ability to bind Bax was determined by co-immunoprecipitation assay; −: lacked Bax-binding activity; settings: for Bax binding: GFP-fusion polypeptides, co-immunoprecipitation
T1 sequence (Q07812 whole entry, species assumed, the tested form may be a part): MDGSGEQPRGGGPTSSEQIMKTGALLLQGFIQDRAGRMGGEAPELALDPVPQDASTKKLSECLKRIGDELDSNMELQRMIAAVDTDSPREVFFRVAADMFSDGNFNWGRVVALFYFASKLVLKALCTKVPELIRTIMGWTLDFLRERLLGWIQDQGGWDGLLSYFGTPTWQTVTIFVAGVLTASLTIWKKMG
Description: Humanin (HN) cDNA was sub-cloned into a Green Fluorescence Protein (GFP) expression vector GFP-Cl at the Xhol/Hind III sites, producing a GFP-HN fusion polypeptide. GFP and GFP-HN were transfected into 293T cells with pcDNA3-HA-Bax. Cell lysates from these cells were immunoprecipitated with anti-GFP antibody and subsequently blotted with anti-HA antibody. The lysates were also blotted with ani-GFP antibody to confirm polypeptide expression. […] The data shown were obtained using the cytosolic form of Humanin; however, both cytosolic and mitochondrial forms of Humanin were tested and the results were the same.
Co-immunoprecipitation assays were performed using Humanin polypeptides expressed as fusion polypeptides with the Green Fluorescent Protein (GFP) in human cells. Wild-type Humanin fused to GFP is referred to as GFP-HN and a mutant form of Humanin, where the cysteine at position 8 is replaced with proline, fused to GFP is referred to as GFP-C8P. […] Immunoblot analysis of lysates of the transfected cells confirmed production of all proteins. In addition, GFP-HN also coimmunoprecipitated endogenous Bax from cell lines, which contain relatively high levels of the Bax protein.
Immunoblotting and immunoprecipitations were performed as follows. Immunoblotting was performed as described previously (Fields and Song, Nature 340:245-246 (1989)). For co-immunoprecipitations, cells were cultured in 50 uM […] Valine Alanine Asparate fluoromethyl-ketone (zVAD-fmk) to prevent apoptosis. Cells were suspended in lysis buffer (50 mM Tris-HCl, pH7.4; 150 mM NaCl; 20 mM EDTA; 50 mM NaF; 0.5% NP-40; 0.1 mM Na3VO4; 20 ug/ml Leupeptin; 20 ug/ml Aprotinin; 1 mM DTT; and 1 mM PMSF). Lysates (200 ul diluted in 1 ml final volume of lysis buffer) were cleared by incubation with 15 ul of protein G-Sepharose 4B (Zymed) and then incubated with 15 ul of polyclonal antibody and 15 ul of protein G at 4° C. overnight. Beads were then washed 4 times with 1.5 mls lysis buffer before boiling in Laemmli sample buffer and performing SDS-PAGE/immunoblotting.
(§1) In order to explore whether a correlation exists between Humanin binding to Bax and Humanin-mediated suppression of apoptosis, Bax was co-expressed with various GFP-fusion polypeptides encoding wild-type, full-length Humanin or various truncation and site-specific mutants of Humanin (Table 1). Expression of all GFP-fusion polypeptides was confirmed by immunoblotting, and ability to bind Bax was determined by co-immunoprecipitation assay. Each Humanin mutant was scored for ability to suppress apoptosis induced by Bax over-expression by >50% using a 3:1 ratio of HN:Bax plasmid DNA. […] Based on these studies, an active region of the 24 amino-acid Humanin peptide, mapped to residues 7-17.

Bax [2] = biological target: T1, Bax; assay: Suppression of apoptosis induced by Bax over-expression (Humanin mutants); format: cell-based; design: expressed in transfected cells; host or cells: HEK293T; settings: GFP-fusion polypeptides, 3:1 ratio of HN:Bax plasmid DNA
Description: (§2) Apoptosis assays were performed as follows. Both floating and adherent cells (after trypsinization) were collected 48 hr after transfection, fixed, and stained using 4′,6-diamidine-2′-phenylindole dihydrochloride (DAPI) for assessing apoptosis based on nuclear fragmentation and chromatin condensation (Fields and Song, supra (1989)).
as §1
Cell culture and transfections were performed as follows. CSM14.1, HCT116, Cos-7, and SF268 cells were cultured in DMEM high glucose media (Irvine Scientific, Santa Ana, Calif.) containing 10% fetal bovine serum (FBS). PC-3 cells were cultured with RPMI 1640 media containing 10% FBS. Transfection of cells was performed using SuperFect (Qiagen, Chatsworth, Calif.) or LipofectaminePLUS reagent ([…]).

Bax [3] = biological target: T1, Bax; assay: Bax-induced apoptosis in transfected neuronal cells (DAPI staining); format: cell-based; design: expressed in transfected cells; settings: CSM14.1 cells, 48 h, DAPI
Description: (A) HEK293T cells were transfected with pcDNA3-HA-Bax together with plasmids encoding GFP, GFP-HN(N), or GFP-HN(M). Cell lysates were immunoprecipitated with polyclonal anti-GFP antibody. Immunoprecipitates (IP) or cell lysates were analyzed by immunoblotting using anti-HA or anti-GFP antibodies, respectively. (B) CSM14.1 neuronal cells were co-transfected with pcDNA3-HA-Bax together with plasmids encoding GFP, GFP-HN(N), or GFP-HN(M). Percent apoptosis was determined 48 h later by DAPI staining (mean±SD; n=3).
Rat neuronal cell line CSM14.1 cells were transfected with various plasmids using the Lipofectamine reagent (Invitrogen). For transfection, 10×10^5 cells were plated per well using 6 well plates. Each well received 1 μg DNA plus […] of Lipofectamine. After 24 hours of transfection, the percentage of cell death was determined using 4′-6-diamidino-2-phenylindole (DAPI) staining. […] The data shown were obtained using the cytosolic form of Humanin; however, both cytosolic and mitochondrial forms of Humanin were tested and the results were the same.
as §2
Since Humanin co-immunoprecipitates with Bax but not Bak, the effects of Humanin over-expression on apoptosis induced by these members of the Bcl-2 family was compared. […] Similar results were obtained regardless of whether Humanin was fused to the N- or C-terminus of GFP, with both of these GFP fusion polypeptides localizing to the cytosol of cells.

Row | Substance | Bax binding (Bax [1]) | co-immunoprecipitation with tagged Bax (Bax [1]; 293T/HEK293T cells, anti-GFP immunoprecipitation) | suppression of Bax-induced apoptosis, nuclear vs mitochondria-encoded form (Bax [3]) | Bax suppression (Bax [2])
1 | 1-17: GFP-fusion of Humanin truncation, residues 1-17 (MAPRGFSCLLLLTSEID; also: fused to GFP; UniProt Q8IVG9 1-17, looked up, fragment) | + |  |  | + (ability to suppress apoptosis induced by Bax over-expression by >50%)
2 | 3-18: GFP-fusion of Humanin truncation, residues 3-18 (PRGFSCLLLLTSEIDL; also: fused to GFP; UniProt Q8IVG9 3-18, looked up, fragment) | + |  |  | + (ability to suppress apoptosis induced by Bax over-expression by >50%)
3 | 3-19: GFP-fusion of Humanin truncation, residues 3-19 (PRGFSCLLLLTSEIDLP; also: fused to GFP; UniProt Q8IVG9 3-19, looked up, fragment) | + |  |  | + (ability to suppress apoptosis induced by Bax over-expression by >50%)
4 | 7-24: GFP-fusion of Humanin truncation, residues 7-24 (SCLLLLTSEIDLPVKRRA; also: fused to GFP; UniProt Q8IVG9 7-24, looked up, fragment) | + |  |  | + (ability to suppress apoptosis induced by Bax over-expression by >50%)
5 | GFP Only: Green Fluorescent Protein control without Humanin [reference compound] | − |  |  | − (failed to protect against Bax-induced apoptosis)

Continued, in another order:

Row | Bax binding (Bax [1]) | co-immunoprecipitation with tagged Bax (Bax [1]; 293T/HEK293T cells, anti-GFP immunoprecipitation) | suppression of Bax-induced apoptosis, nuclear vs mitochondria-encoded form (Bax [3]) | Substance | Bax suppression (Bax [2])
6 | − |  |  | 1-12: GFP-fusion of Humanin truncation, residues 1-12 (MAPRGFSCLLLL; also: fused to GFP; UniProt Q8IVG9 1-12, looked up, fragment) | − (failed to protect against Bax-induced apoptosis)
7 | − |  |  | 1-15: GFP-fusion of Humanin truncation, residues 1-15 (MAPRGFSCLLLLTSE; also: fused to GFP; UniProt Q8IVG9 1-15, looked up, fragment) | − (failed to protect against Bax-induced apoptosis)
8 | + |  |  | 3-17: GFP-fusion of Humanin truncation, residues 3-17 (PRGFSCLLLLTSEID; also: fused to GFP; UniProt Q8IVG9 3-17, looked up, fragment) | + (ability to suppress apoptosis induced by Bax over-expression by >50%)
9 | + |  |  | 3-24: GFP-fusion of Humanin truncation, residues 3-24 (PRGFSCLLLLTSEIDLPVKRRA; also: fused to GFP; UniProt Q8IVG9 3-24, looked up, fragment) | + (ability to suppress apoptosis induced by Bax over-expression by >50%)
10 | + |  |  | 4-24: GFP-fusion of Humanin truncation, residues 4-24 (RGFSCLLLLTSEIDLPVKRRA; also: fused to GFP; UniProt Q8IVG9 4-24, looked up, fragment) | + (ability to suppress apoptosis induced by Bax over-expression by >50%)
11 | − |  |  | 10-24: GFP-fusion of Humanin truncation, residues 10-24 (LLLTSEIDLPVKRRA; also: fused to GFP; UniProt Q8IVG9 10-24, looked up, fragment) | − (failed to protect against Bax-induced apoptosis)
12 | − |  |  | 13-24: GFP-fusion of Humanin truncation, residues 13-24 (TSEIDLPVKRRA; also: fused to GFP; UniProt Q8IVG9 13-24, looked up, fragment) | − (failed to protect against Bax-induced apoptosis)
13 |  | comparable amounts | suppressed to comparable extents | GFP-HN(M): mitochondria-encoded Humanin (SEQ ID NO:3, 21 amino acids, Met at position 16) as GFP fusion | 
